Data on 17 sequences can be found in the supplement of paper PMC9170038.

This data set deals with MS2 coat protein. Briefly: apparent KD of MS2 coat protein; higher = weaker reporter binding. The settings on record: Eterna round: R107. In a few lines: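 Designed RNA switches were transcribed on-chip from Illumina sequencing clusters. They were then titrated with SNAP-549-labelled MS2 coat protein (twofold steps, 0.7 or 1.5 nM to 3 µM; 0.8–1.5 h to 10–20 min per step) in 100 mM Tris-HCl pH 7.5, 80 mM KCl, 4 mM MgCl2, without or with constant ligand. Apparent KD is the per-design median of normalised cluster binding-curve fits.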

Where [1] appears, read: input ligand: theophylline 20 uM.
Setting [2] is: input ligand: tryptophan 2.4 mM.
Where [3] appears, read: input ligand: theophylline 2 mM.

Take “AGUGUUAUAACUGAUACCAGACUUUUGCUUAUACAUGAGGAUCACCCAUGUAAAAUGGUUGUCCCUUGGCAGCAGAAGUUACACA [JR_SSTheophyB_Sub008]”: the “apparent KD of MS2 coat protein” value by setting is: (input ligand: arginine 13.2 mM) 0.104 µM; under setting [1], 0.0961 µM; under setting [2], 0.0586 µM.
With “UACAUGAGGAUCACCCAUGUAUUGCCGGUACGAGGACCGGUACGGCCGCCACUCGGAGCAUGAGGAUCACCCAUGUGCUGCUAUG [Same State Trypophan A GF 24]”, the “apparent KD of MS2 coat protein” value came out at 0.0355 µM (input ligand: arginine 13.2 mM), 0.0671 µM under setting [1] and 0.0837 µM under setting [3].
As to “CGAUAGGGUCAAUACCUAAUCAUAUCUGAAGGAGCGUGGAUAUACACAGGUAGGUCGCAGAAUCACAUGAGGAUCACCCAUGUCC [Same State Arginine A GF13]”, the “apparent KD of MS2 coat protein” value runs as follows: (input ligand: arginine 13.2 mM) 0.0602 µM; (input ligand: none) 0.102 µM; under setting [1], 0.127 µM; under setting [3], 0.154 µM; under setting [2], 0.0965 µM.
In the same order, the values of “GGAUAGGACACGGCCGCCACUAGCUAGGAUACUAGCAACAUUUGGGUACAUGAGGAUCACCCAUGUAGGACCGGGUGUCCUAUCG” are 0.0644 µM, 0.0637 µM, 0.117 µM, 0.0855 µM and 0.107 µM.
On the same counts, the results for “AUACAUGAGGAUCACCCAUGUUAUAGUGAAGGAGCGACAUUUAUGUCAGGUAGGUCGCACUGUUGUUUAAUGAUUCUUGGAUCUU [#20 Exclusion - Arginine A]” are 0.016 µM, 0.0133 µM, 0.0189 µM, 0.0141 µM and 0.0151 µM.
On to “ACAUGAGGAUCACCCAUGUACAUAAGGGAAGGAGCGCGGUGAAACGCAGGUAGGUCGCCCAUAAUAUCUAACAUUAAAUUCAUGU [LeftA3]”, for which the “apparent KD of MS2 coat protein” value is, setting by setting: (input ligand: arginine 13.2 mM) 0.0168 µM; (input ligand: none) 0.0166 µM; under setting [1], 0.0279 µM; under setting [3], 0.02 µM; under setting [2], 0.0188 µM.
For the sequence “UGUAUGGACUGAAGGAGCGCCUCAAAUAACAUGAGGAUCACCCAUGUGGACAAAGUCCUUGGGCAGGUAGGUCGCAGUCCAUACU [ArgBX 5 #StaticStem #MS2Late]”, the “apparent KD of MS2 coat protein” value came to 0.0491 µM (input ligand: arginine 13.2 mM); 0.0724 µM (input ligand: none); 0.0829 µM under setting [1]; 0.0923 µM under setting [3]; 0.0822 µM under setting [2].
For “GGACUAACCAGAAGGAGCGACGCGCAGAAACUGCAAAUUCCUCCACACGAGGAUCACCCGUGUCAGGUAGGUCGCUGGUUAGUCG”, the “apparent KD of MS2 coat protein” value is 0.0165 µM (input ligand: arginine 13.2 mM); 0.0166 µM (input ligand: none); 0.023 µM under setting [1]; 0.0161 µM under setting [3]; 0.0182 µM under setting [2].
Consider “CGGUUUGUGAUGGAUACCAGCAGAGAAAACGUUUAUCCUAACAUGAGGAUCACCCAUGUAUGCCCUUGGCAGCUGUUGUGGGCUG [8.U]”, for which the “apparent KD of MS2 coat protein” value is 0.0345 µM (input ligand: arginine 13.2 mM), 0.0603 µM under setting [1] and 0.0435 µM under setting [2].
For the sequence “GGGUACAUCGCGGCCGCCACUCGUGUAAAUACAUGAGGAUCACCCAUGUCGAUGGAGACAUCGGCGAGGACCGGGUGAUGUACCG”, the “apparent KD of MS2 coat protein” value is, setting by setting: (input ligand: arginine 13.2 mM) 0.0431 µM; (input ligand: none) 0.0475 µM; under setting [1], 0.0542 µM; under setting [3], 0.0535 µM; under setting [2], 0.0115 µM.
For “CGCAACCCUAAGGGAUUGUGGUUAUUAGAUACCAGUAUGAUGCAAUACCCUUGGCAGCUAAUACAUGAGGAUCACCCAUGUUGCG [Th A Ex t2]”, the “apparent KD of MS2 coat protein” value turned out to be 0.0136 µM (input ligand: arginine 13.2 mM), 0.0202 µM under setting [1] and 0.0168 µM under setting [2].
Take “UUGUGGCGCUCGGCCGCCACUCCGACAUGAGGAUCACCCAUGUUCUACAUGAGGAUCACCCAUGUGAGGACCGGGAGACACAACC [Exclusion Tryptophan B GF12]”: the “apparent KD of MS2 coat protein” value runs as follows: (input ligand: arginine 13.2 mM) 0.137 µM; (input ligand: none) 0.126 µM; under setting [1], 0.102 µM; under setting [3], 0.134 µM; under setting [2], 0.165 µM.
In the same order, the values of “ACAUGAGGGAUGGAUACCAGCGACAUGAGGAUCACCCAUGUAUGAGGAUCACCCAUGUUAUGCCCUUGGCAGCCACAAACAUGAG [UUYMULLIN]” are 0.0248 µM, 0.0143 µM, 0.02 µM, 0.117 µM and 0.0169 µM.
Turning to “UGCAUCAUAAUCAUGUUGGUGCUAGGUGAUACCAGCAUCGAAAGAUGCCCUUGGCAGCACCAACAUGAGGAUCACCCAUGUAAUA [(MT)''-(M)'-(T')-(Theo)-(Ms2)_Design1/22_2]”, the “apparent KD of MS2 coat protein” value reads like this: (input ligand: arginine 13.2 mM) 0.0692 µM; under setting [1], 0.165 µM; under setting [2], 0.027 µM.
In the case of “GGGUACAUCGCGGCCGCCACUCAUGUAAAUGCAUGAGGAUCACCCAUGUCGAUGGAGACAUCGGAGAGGACCGGGUGAUGUACCG”, the “apparent KD of MS2 coat protein” value (input ligand: arginine 13.2 mM) was 0.108 µM; the “apparent KD of MS2 coat protein” value (input ligand: none) worked out at 0.259 µM; the “apparent KD of MS2 coat protein” value under setting [1] came to 0.268 µM; the “apparent KD of MS2 coat protein” value under setting [3] amounted to 0.313 µM; the “apparent KD of MS2 coat protein” value under setting [2] worked out at 0.193 µM.
With “CAUGUGAAAAUAAGAAGAAGAAGAAUAAAUCGAGGACCGGUACGGCCGCCACUCGUCGAAUCACAUGAGGAUCACCCAUGUAGCC [Tryptofun]”, the “apparent KD of MS2 coat protein” value by setting is: (input ligand: arginine 13.2 mM) 0.0263 µM; under setting [1], 0.0526 µM; under setting [3], 0.069 µM.
“CGGACAUGAGGAUCACCCAUGUACACUGAAGGAGCGUCGAGAACGACAGGUAGGUCGCAGGUUGAGGAUGGUGAUGCUCAGGUAG [Exclusion Arginine A GF 3]”: the “apparent KD of MS2 coat protein” value by setting is: (input ligand: arginine 13.2 mM) 0.0371 µM; (input ligand: none) 0.0393 µM; under setting [1], 0.0647 µM; under setting [3], 0.0158 µM; under setting [2], 0.0143 µM.
